Experimental findings from publication PMC4909301, “Fibulin-5 Regulates Angiopoietin-1/Tie-2 Receptor Signaling in Endothelial Cells” (PLoS ONE, 2016) are described below.

In this assay the target is T1, recombinant human Tie-2/Fc chimera (human, UniProt Q02763 23-748).
T1 construct: TIE-2 receptor tyrosine kinase, human, part fused to Fc in R&D Systems Cat. #313-TI-100; source: bought: R&D Systems
Description: ELISA; solid-phase binding assay; TIE-2/Fc (4.0 ug/ml) or Fibulin-5 (20 ug/ml) coated on 96-well plates; 1:2 serial dilutions of soluble Ang-1 in 2% non-fat milk in TBS, 1 hr, room temperature; detected with Ang-1 antibody. As to conditions: both partners purified.

T1 sequence (Q02763 23-748, change not shown): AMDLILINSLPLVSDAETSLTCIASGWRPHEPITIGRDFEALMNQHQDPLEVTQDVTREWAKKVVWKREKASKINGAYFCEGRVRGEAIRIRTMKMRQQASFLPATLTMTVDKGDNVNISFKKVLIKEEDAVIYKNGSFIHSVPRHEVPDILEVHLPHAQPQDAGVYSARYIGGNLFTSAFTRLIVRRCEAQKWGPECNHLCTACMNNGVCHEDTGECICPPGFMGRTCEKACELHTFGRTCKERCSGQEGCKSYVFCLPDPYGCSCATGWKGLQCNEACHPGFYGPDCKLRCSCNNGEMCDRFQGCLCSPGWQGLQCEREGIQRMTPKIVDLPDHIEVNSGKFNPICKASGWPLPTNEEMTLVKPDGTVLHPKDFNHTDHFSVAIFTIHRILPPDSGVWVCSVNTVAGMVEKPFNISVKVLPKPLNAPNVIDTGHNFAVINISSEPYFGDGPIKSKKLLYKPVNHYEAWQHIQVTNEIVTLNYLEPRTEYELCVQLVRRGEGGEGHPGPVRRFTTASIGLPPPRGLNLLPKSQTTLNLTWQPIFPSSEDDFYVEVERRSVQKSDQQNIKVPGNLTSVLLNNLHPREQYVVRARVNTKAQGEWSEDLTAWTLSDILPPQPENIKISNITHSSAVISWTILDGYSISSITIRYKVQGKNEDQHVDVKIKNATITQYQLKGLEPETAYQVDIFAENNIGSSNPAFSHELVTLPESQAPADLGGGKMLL

B1: recombinant human Ang-1 (angiopoietin-1) (ligand, UniProt Q15389 16-498, looked up)
chain: HIGCSNQRRSPENSGRRYNRIQHGQCAYTFILPEHDGNCRESTTDQYNTNALQRDAPHVEPDFSSQKLQHLEHVMENYTQWLQKLENYIVENMKSEMAQIQQNAVQNHTATMLEIGTSLLSQTAEQTRKLTDVETQVLNQTSRLEIQLLENSLSTYKLEKQLLQQTNEILKIHEKNSLLEHKILEMEGKHKEELDTLKEEKENLQGLVTRQTYIIQELEKQLNRATTNNSVLQKQQLELMDTVHNLVNLCTKEGVLLKGGKREEEKPFRDCADVYQAGFNKSGIYTIYINNMPEPKKVFCNMDVNGGGWTVIQHREDGSLDFQRGWKEYKMGFGNPSGEYWLGNEFIFAITSQRQYMLRIELMDWEGNRAYSQYDRFHIGNEKQNYRLYLKGHTGTAGKQSSLILHGADFSTKDADNDNCMCKCALMLTGGWWFDACGPSNLNGMFYTAGQNHGKLNGIKWHYFKGPSYSLRSTTMMIRPLDF
notes: angiopoietin-1, human, recombinant, R&D Systems Cat. #923-AN/CF; The introduction calls angiopoietins oligomeric glycoproteins; source: bought: R&D Systems
B1: the binding result is recorded as “binds”.
